From patent EP4644419A1 (Hangzhou Zhongmeihuadong Pharmaceutical Co., Ltd., dated 2025)

How the values were obtained:
[1] = target: T1, human CD112R antigen protein huCD112R-His (Acro Biosysterm, PVG-H52H4) (human, UniProt Q6DKI7 41-171); assay: SPR (Biacore X100), antibody captured on Protein A chip, huCD112R-His as analyte, 1:1 Langmuir
T1 construct: purchased; also called human antigen protein; not shown: His tag
T1 sequence (looked up): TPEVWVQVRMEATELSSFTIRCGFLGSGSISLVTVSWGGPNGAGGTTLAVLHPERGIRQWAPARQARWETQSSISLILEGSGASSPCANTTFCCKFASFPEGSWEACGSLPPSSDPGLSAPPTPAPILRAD

[2] = target: T2, human CD112R on antigen-specific CD8+ T cells (human, UniProt Q6DKI7 1-326); assay: cell-based or functional assay
T2 sequence (looked up): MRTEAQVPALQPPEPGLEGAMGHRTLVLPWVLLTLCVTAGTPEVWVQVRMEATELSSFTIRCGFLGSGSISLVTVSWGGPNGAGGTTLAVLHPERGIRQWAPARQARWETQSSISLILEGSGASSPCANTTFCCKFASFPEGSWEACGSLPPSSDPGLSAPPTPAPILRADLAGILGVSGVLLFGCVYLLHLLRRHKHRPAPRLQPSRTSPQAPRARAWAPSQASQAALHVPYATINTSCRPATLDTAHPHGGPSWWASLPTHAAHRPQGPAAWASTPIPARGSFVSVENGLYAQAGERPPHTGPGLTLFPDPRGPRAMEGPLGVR

[3] = target: T3, monkey antigen protein (monkey CD112R, Uniprot ID: A0A2K5WVV8) (monkey, UniProt A0A2K5WVV8 41-171); assay: ELISA, monkey antigen protein (as Example 6.1)
T3 sequence: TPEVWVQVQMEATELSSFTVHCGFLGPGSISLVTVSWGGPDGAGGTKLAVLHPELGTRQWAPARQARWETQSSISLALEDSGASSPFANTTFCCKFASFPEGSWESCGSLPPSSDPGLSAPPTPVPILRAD

[4] = target: T4, human CD112R on GS-J2C/CD112R effector cells (human, UniProt Q6DKI7 1-326); assay: cell-based or functional assay
T4 sequence (looked up): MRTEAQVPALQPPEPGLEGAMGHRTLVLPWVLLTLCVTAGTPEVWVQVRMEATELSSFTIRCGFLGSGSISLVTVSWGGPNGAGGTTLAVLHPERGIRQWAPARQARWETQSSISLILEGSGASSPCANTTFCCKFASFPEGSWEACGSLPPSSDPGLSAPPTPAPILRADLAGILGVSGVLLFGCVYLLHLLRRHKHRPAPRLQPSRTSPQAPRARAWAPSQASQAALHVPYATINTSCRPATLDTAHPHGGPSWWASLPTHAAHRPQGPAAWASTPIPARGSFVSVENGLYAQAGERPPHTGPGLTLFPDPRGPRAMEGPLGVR

[5] = target: T1, human CD112R antigen protein …; assay: ELISA, huCD112R-His coated on plate

B1: C7 (antibody, human IgG1, kappa, V domains shown)
VH: EVQLQQSGPELVKPGASVKISCKASGYTLTDYYMNWVKQSHGKSLEWIGDINPNNGGTNFNQKFKGKATLTIDKSSSTTYMELRSLTSEDSAVYYCASLFFDYWGQGTTLTVSS
VL: DIVMTQSPSSLSVSAGEKVTMSCKSSQSLLNSGNQKNYLAWYQQKPGQPPKLLIYGASTRESGVPDRFTGSGSGTDFTLTISSVQAEDLALYYCQNAHSSPYTFGGGTKLEIKR
Kd [1]: 0.0576 nM | IFN-γ(pg/ml) at 0.5µg/ml antibody [2]: 818 pg/mL | IFN-γ(pg/ml) at 5µg/ml antibody [2]: 837 pg/mL | EC50 [3]: 0.08 nM | EC50 (Blocking effects of the antibodies, reporter gene method) [4]: 0.031 µg/mL | EC50 [5]: 0.034 nM
